B1: MD2306 (bispecific antibody)
chain: EVQLVESGGGLVQPGGSLRLSCAVSISIFDIYAMDWYRQAPGKQRDLVATSFRDGSTNYADSVKGRFTISRDNAKNTLYLQMNSLKPEDTAVYLCHVSLYRDPLGVAGGMGVYWGKGALVTVSSGGGGSGGGGSEVQLVESGGGLVQPGGSLRLSCAVSISIFDIYAMDWYRQAPGKQRDLVATSFRDGSTNYADSVKGRFTISRDNAKNTLYLQMNSLKPEDTAVYLCHVSLYRDPLGVAGGMGVYWGKGALVTVSSGGGGSGGGGSEVQLVESGGGLVQPGGSLRLSCAATGFTLENKAIGWFRQTPGSEREGVLCISKSGSWTYYTDSMRGRFTISRDNAENTVYLQMDSLKPEDTAVYYCATTTAGGGLCWDGTTFSRLASSWGQGTQVTVSS
B2: MD2302 (bispecific antibody)
chain: EVQLVESGGGLVQPGGSLRLSCAVSISIFDIYAMDWYRQAPGKQRDLVATSFRDGSTNYADSVKGRFTISRDNAKNTLYLQMNSLKPEDTAVYLCHVSLYRDPLGVAGGMGVYWGKGALVTVSSGGGGSGGGGSEVQLVESGGGLVQPGGSLRLSCAATGFTLENKAIGWFRQTPGSEREGVLCISKSGSWTYYTDSMRGRFTISRDNAENTVYLQMDSLKPEDTAVYYCATTTAGGGLCWDGTTFSRLASSWGQGTQVTVSSGGGGSGGGGSEVQLVESGGGLVQAGGSLKLSCAASGRTYAMGWFRQAPGKEREFVAHINALGTRTYYSDSVKGRFTISRDNAKNTEYLEMNNLKPEDTAVYYCTAQGQWRAAPVAVAAEYEFWGQGTQVTVSS
B3: MD2304 (bispecific antibody)
chain: EVQLVESGGGLVQPGGSLRLSCAATGFTLENKAIGWFRQTPGSEREGVLCISKSGSWTYYTDSMRGRFTISRDNAENTVYLQMDSLKPEDTAVYYCATTTAGGGLCWDGTTFSRLASSWGQGTQVTVSSGGGGSGGGGSEVQLVESGGGLVQPGGSLRLSCAVSISIFDIYAMDWYRQAPGKQRDLVATSFRDGSTNYADSVKGRFTISRDNAKNTLYLQMNSLKPEDTAVYLCHVSLYRDPLGVAGGMGVYWGKGALVTVSSGGGGSGGGGSEVQLVESGGGLVQPGGSLRLSCAVSISIFDIYAMDWYRQAPGKQRDLVATSFRDGSTNYADSVKGRFTISRDNAKNTLYLQMNSLKPEDTAVYLCHVSLYRDPLGVAGGMGVYWGKGALVTVSS
B4: MD2311 (bispecific antibody)
chain: EVQLVESGGGLVQAGDSLRLSCAASGPTFGMSAMGWFRQAPGKEREFVAAISGLGNPNYSDDVKGRFTISRENGRNTVYLQMNSLKPEDTAVYYCAQRKVYHVQGGDRPQAYDYWGQGTQVTVSSGGGGSGGGGSEVQLVESGGGLVQPGGSLRLSCAATGFTLENKAIGWFRQTPGSEREGVLCISKSGSWTYYTDSMRGRFTISRDNAENTVYLQMDSLKPEDTAVYYCATTTAGGGLCWDGTTFSRLASSWGQGTQVTVSSGGGGSGGGGSEVQLVESGGGLVQAGDSLRISCAASGRTLSIYSMGWFRQAPGKEREFVATIGWNSGRTFYPDSLKGRFTISRDNARNTLYLQMNNLRPEDTAVYYCAAAKGPLRLSSQADYWGQGTQVTVSS
B5: MD2305 (bispecific antibody)
chain: EVQLVESGGGLVQPGGSLRLSCAVSISIFDIYAMDWYRQAPGKQRDLVATSFRDGSTNYADSVKGRFTISRDNAKNTLYLQMNSLKPEDTAVYLCHVSLYRDPLGVAGGMGVYWGKGALVTVSSGGGGSGGGGSEVQLVESGGGLVQPGGSLRLSCAATGFTLENKAIGWFRQTPGSEREGVLCISKSGSWTYYTDSMRGRFTISRDNAENTVYLQMDSLKPEDTAVYYCATTTAGGGLCWDGTTFSRLASSWGQGTQVTVSSGGGGSGGGGSEVQLVESGGGLVQPGGSLRLSCAVSISIFDIYAMDWYRQAPGKQRDLVATSFRDGSTNYADSVKGRFTISRDNAKNTLYLQMNSLKPEDTAVYLCHVSLYRDPLGVAGGMGVYWGKGALVTVSS
B6: MD2314 (bispecific antibody)
chain: EVQLVESGGGLVQAGDSLRLSCAASGPTFGMSAMGWFRQAPGKEREFVAAISGLGNPNYSDDVKGRFTISRENGRNTVYLQMNSLKPEDTAVYYCAQRKVYHVQGGDRPQAYDYWGQGTQVTVSSGGGGSGGGGSEVQLVESGGGLVQAGDSLRLSCAASGPTFGMSAMGWFRQAPGKEREFVAAISGLGNPNYSDDVKGRFTISRENGRNTVYLQMNSLKPEDTAVYYCAQRKVYHVQGGDRPQAYDYWGQGTQVTVSSGGGGSGGGGSEVQLVESGGGLVQPGGSLRLSCAATGFTLENKAIGWFRQTPGSEREGVLCISKSGSWTYYTDSMRGRFTISRDNAENTVYLQMDSLKPEDTAVYYCATTTAGGGLCWDGTTFSRLASSWGQGTQVTVSS
B7: MD1223 (bispecific antibody)
chain: EVQLVESGGGLVQPGGSLKLSCAASGFTFSTSWMYWLRQAPGKGLEWVSVINTDGGTYYADSVKDRFTISRDNAKDTLYLQMSSLKSEDTAVYYCAKDWGGPEPTRGQGTQVTVSSAAAGGGGSGGGGSGGGGSGGGGSGGGGSGGGGSGGGGSEVQLVESGGGLVQPGGSLRLSCAATGFTLENKAIGWFRQTPGSEREGVLCISKSGSWTYYTDSMRGRFTISRDNAENTVYLQMDSLKPEDTAVYYCATTTAGGGLCWDGTTFSRLASSWGQGTQVTVSS
B8: MD2301 (bispecific antibody)
chain: EVQLVESGGGLVQPGGSLRLSCAATGFTLENKAIGWFRQTPGSEREGVLCISKSGSWTYYTDSMRGRFTISRDNAENTVYLQMDSLKPEDTAVYYCATTTAGGGLCWDGTTFSRLASSWGQGTQVTVSSGGGGSGGGGSEVQLVESGGGLVQPGGSLRLSCAVSISIFDIYAMDWYRQAPGKQRDLVATSFRDGSTNYADSVKGRFTISRDNAKNTLYLQMNSLKPEDTAVYLCHVSLYRDPLGVAGGMGVYWGKGALVTVSSGGGGSGGGGSEVQLVESGGGLVQAGGSLKLSCAASGRTYAMGWFRQAPGKEREFVAHINALGTRTYYSDSVKGRFTISRDNAKNTEYLEMNNLKPEDTAVYYCTAQGQWRAAPVAVAAEYEFWGQGTQVTVSS
B9: SD1036 + SD1038 (protein)
VHH 1: EVQLVESGGGLVQAGGSLKLSCAASGRTYAMGWFRQAPGKEREFVAHINALGTRTYYSDSVKGRFTISRDNAKNTEYLEMNNLKPEDTAVYYCTAQGQWRAAPVAVAAEYEFWGQGTQVTVSS
VHH 2: EVQLVESGGGLVQPGGSLRLSCAVSISIFDIYAMDWYRQAPGKQRDLVATSFRDGSTNYADSVKGRFTISRDNAKNTLYLQMNSLKPEDTAVYLCHVSLYRDPLGVAGGMGVYWGKGALVTVSS

How the values were obtained:
Assay in all cases: cell-based or functional assay
[1] = molecular target: hemagglutinin (HA) of influenza virus H1N1 A/New Caledonia/20/99 (influenza A virus)
[2] = molecular target: hemagglutinin (HA) of influenza virus H3N2 A/Brisbane/10/07 (influenza A virus)
[3] = molecular target: hemagglutinin (HA) of influenza virus H3N2 A/Wisconsin/67/05 (influenza A virus)
[4] = molecular target: hemagglutinin (HA) of influenza virus H5N1 A/Vietnam/1194/04 (influenza A virus)
[5] = molecular target: hemagglutinin (HA) of influenza virus H7N3 A/NIBRG/60 (A/mallard/Netherlands/12/00) (influenza A virus)
[6] = molecular target: hemagglutinin (HA) of influenza virus B/Florida/04/06 (Yamagata) (influenza B virus)
[7] = molecular target: hemagglutinin (HA) of influenza virus B/Lee/40 (Old) (influenza B virus) (UniProt P03460)
hemagglutinin (HA) of influenza virus B/Lee/40 (Old) (influenza B virus), sequence (P03460 16-584 limits assumed): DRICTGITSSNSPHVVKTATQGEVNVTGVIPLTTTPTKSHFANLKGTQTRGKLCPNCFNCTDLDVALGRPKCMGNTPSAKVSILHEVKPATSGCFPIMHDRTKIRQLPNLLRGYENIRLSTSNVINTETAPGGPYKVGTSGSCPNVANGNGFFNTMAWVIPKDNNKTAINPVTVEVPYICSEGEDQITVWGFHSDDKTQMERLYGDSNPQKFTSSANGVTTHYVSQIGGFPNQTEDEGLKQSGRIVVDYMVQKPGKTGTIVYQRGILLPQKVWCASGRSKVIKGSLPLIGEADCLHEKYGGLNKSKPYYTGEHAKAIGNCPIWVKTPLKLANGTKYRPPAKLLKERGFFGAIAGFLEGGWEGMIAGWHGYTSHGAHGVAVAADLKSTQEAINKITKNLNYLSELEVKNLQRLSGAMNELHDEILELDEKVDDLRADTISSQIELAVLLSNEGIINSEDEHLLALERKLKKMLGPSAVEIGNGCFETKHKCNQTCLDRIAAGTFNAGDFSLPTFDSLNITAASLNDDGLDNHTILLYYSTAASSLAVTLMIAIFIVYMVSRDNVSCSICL

[8] = molecular target: hemagglutinin (HA) of influenza virus H1N1 A/Puerto Rico/8/34-MA (influenza A virus)

| Binder | average neutralization titer [1] | average neutralization titer [2] | average neutralization titer [3] | average neutralization titer [4] | average neutralization titer [5] | also measured |
| --- | --- | --- | --- | --- | --- | --- |
| B1 | 6.1 nM | 10.7 nM | 5.4 nM | 4.7 nM | 15.4 nM | – |
| B2 | 14.7 nM | – | 34.7 nM | – | – | average neutralization titer [6]: 412 nM |
| B3 | 20.6 nM | – | 18.2 nM | – | – | – |
| B4 | – | 21.6 nM | – | 12.8 nM | 15.3 nM | – |
| B5 | 4.3 nM | – | 21.7 nM | – | – | – |
| B6 | – | > 1000 nM | – | 6.5 nM | > 1000 nM | – |
| B7 | – | – | – | – | – | neutralization titer [6]: 2.3 nM; neutralization titer [7]: 18 nM |
| B8 | 14.7 nM | – | 34.7 nM | – | – | average neutralization titer [6]: 412 nM |
| B9 | – | – | – | – | – | neutralization titer [8]: 6.8 nM; neutralization titer [3]: < 1000 nM; neutralization titer [4]: 19.3 nM |
